Where a chain is given by its changes, count along the chain named.
B1: murine antibody 208F2 (hybridoma CNCM I-4757) (antibody, V domains shown)
VH: QVQLQQSGPELVKPGASVKMSCKASGYTFTSYYIYWVKQRPGQGLEWLGWIWPGDGSTKYNEKFKDKTTLTADKSSNTAYMFLSSLTSEDSAVYFCASPMITPNYAMDYWGQGASVTVSS
VL: DIQMTQTTSSLSASLGDRVTISCRASQDISKYLNWYQQQPDGTIKLLIYYTSRLHSGVPSRFSGRGSGTDYSLTISNVEQEDIATYFCQQGSTLPYTFGGGTKLEIK
notes: also called m208F2
B2: murine antibody 213B10 (hybridoma CNCM I-4774) (antibody, V domains shown)
VH: B1 VH with P9S, Y35H, L48I, K63R, D66G, N77S
VL: B1 VL with S76T, V78L, T93A
notes: also called m213B10
B3: murine antibody 214F8 (hybridoma CNCM I-4775) (antibody, V domains shown)
VH: B1 VH with P9S, M20L, Y35H, L48I, K63R, D66G, N77S
VL: B1 VL with I21F, S76T, V78L, T93A
notes: also called m214F8
B4: murine antibody 219D6 (hybridoma CNCM I-4736) (antibody, V domains shown)
VH: B1 VH with A16D, T28S, Y33F, Y35H, L48I, D66G, A72T, N77S, S84N
VL: B1 VL with I44V, V78L
notes: also called m219D6
B5: murine antibody 212A11 (hybridoma CNCM I-4773) (antibody, V domains shown)
VH: B1 VH with Y35H, L48I, D66G, N77S
VL: B1 VL with S30N, I44V, V78L
notes: also called m212A11
B6: chimeric antibody c208F2 (antibody, human IgG1, kappa, V domains shown)
VH: B1 VH
VL: DIQMTQTTSSLSASLGDRVTISCRASQDISKYLNWYQQQPDGTIKLLIYYTSRLHSGVPSRFSGRGSGTDYSLTISNVEQEDIATYFCQQGSTLPYTFGGGTKLEIKR
B7: humanized antibody hz208F2 VH3/VL3 (hz208F2 H026/L024) (antibody, human IgG1, kappa, V domains shown)
VH: QVQLVQSGAEVKKPGASVKMSCKASGYTFTSYYIYWVKQAPGQGLEWLGWIWPGDGSTKYNEKFQGRVTLTADKSSNTAYMFLSSLRSEDTAVYFCASPMITPNYAMDYWGQGTLVTVSS
VL: DIQMTQSPSSLSASVGDRVTISCRASQDISKYLNWYQQKPGKAPKLLIYYTSRLHSGVPSRFSGRGSGTDYSLTISNLQPEDFATYFCQQGSTLPYTFGGGTKVEIKR
notes: also called H26/L024; first humanized form of 208F2
B8: chimeric antibody c212A11 (antibody, human IgG1, kappa, V domains shown)
VH: B1 VH with Y35H, L48I, D66G, N77S
VL: B6 VL with S30N, I44V, V78L
B9: chimeric antibody c213B10 (antibody, human IgG1, kappa)
heavy: not shown
light: DIQMTQTTSSLSASLGDRVTISCRASQDISKYLNWYQQQPDGTIKLLIYYTSRLHSGVPSRFSGRGSGTDYSLTITNLEQEDIATYFCQQGSALPYTFGGGTKLEIKRTVAAPSVFIFPPSDEQLKSGTASVVCLLNNFYPREAKVQWKVDNALQSGNSQESVTEQDSKDSTYSLSSTLTLSKADYEKHKVYACEVTHQGLSSPVTKSFNRGEC
B10: chimeric antibody c214F8 (antibody, human IgG1, kappa)
heavy: not shown
light: B9 light with I21F
B11: chimeric antibody c219D6 (antibody, human IgG1, kappa, V domains shown)
VH: B1 VH with A16D, T28S, Y33F, Y35H, L48I, D66G, A72T, N77S, S84N
VL: B6 VL with I44V, V78L

Each binder was assayed against T1, human IGF-1R, native, on cells (MCF-7, hIGF-1R transfected cells, primary normal human cells) (human, UniProt P08069 31-1367) (assay: cell-based or functional assay).
B1 was tested, and the “MCF7 internalisation assay: % remaining rh IGF1R” value was 27%, the “MCF7 internalisation assay: MFI 37°C” value was 94 MFI and the “MCF7 internalisation assay: Δ (MFI 4°C - MFI 37°C)” value (shortened to “MCF7 internalisation assay: Δ”) was 261 MFI.
With B2 the “MCF7 internalisation assay: % remaining rh IGF1R” value was 30% and the “MCF7 internalisation assay: Δ” value was 271 MFI.
B3 was tested, and the “MCF7 internalisation assay: % remaining rh IGF1R” value was 29%, the “MCF7 internalisation assay: MFI 37°C” value was 111 MFI and the “MCF7 internalisation assay: Δ” value was 275 MFI.
In the case of B4, the “MCF7 internalisation assay: % remaining rh IGF1R” value is reported as 30% and the “MCF7 internalisation assay: Δ” value is reported as 243 MFI.

What follows are binders tested against T2, monkey IGF-1R on COS-7 cells (African green monkey kidney) (monkey (African green monkey)) (assay: FACS on Cos-7 cells (monkey IGF1R+), SNT at 5 µg/ml).
T2 construct: whole, on cells; also called monkey native IGF-1R
With B5 the MFI was 126 MFI.

Target: T1, human IGF-1R, native, on cells (MCF-7, …)
Test: cell-based or functional assay
Remark: another data set of the same source
With B1 the “% internalization (MCF-7)” value was 88% and the “ΔMFI (MFI 4°C - MFI 37°C, MCF-7, 10 µg/ml, 4 h)” value was 294 MFI.
With B6 the “% internalization (MCF-7)” value was 82% and the “ΔMFI (MFI 4°C - MFI 37°C, MCF-7, 10 µg/ml, 4 h)” value was 278 MFI.
B7 was tested, and the “% internalization (MCF-7)” value was 87% and the “ΔMFI (MFI 4°C - MFI 37°C, MCF-7, 10 µg/ml, 4 h)” value was 344 MFI.

Target: T1, human IGF-1R, native, on cells (MCF-7, …)
Test: cell-based or functional assay
Remark: another data set of the same source
B5 was tested, and the “inhibition of hIGF-1R phosphorylation in response to IGF-1 (MCF-7 cells)” value (shortened to “inhibition of hIGF-1R phosphorylation”) was over 80%.
With B1 the “inhibition of hIGF-1R phosphorylation” value was over 80%.
B2 was tested, and the “inhibition of hIGF-1R phosphorylation” value was over 80%.
B3 was tested, and the “inhibition of hIGF-1R phosphorylation” value was over 80%.
B4 was tested, and the “inhibition of hIGF-1R phosphorylation” value was over 80%.
In the case of B8, the “% of pIGF-1R compared to IGF-1 (MCF-7 cells, 10 µg/ml Ab)” value (“% of pIGF-1R” for short) is reported as under 10%.
In the case of B6, the “% of pIGF-1R” value is reported as under 10%.
In the case of B9, the “% of pIGF-1R” value is reported as under 10%.
With B10 the “% of pIGF-1R” value was under 10%.
For B11, the “% of pIGF-1R” value was under 10%.

Each binder was assayed against T3, human insulin receptor on cells (IM9 cells; hIR+ transfected cell line, NIH 3T3 IR+) (human, UniProt P06213 28-1382) (assay: FACS titration on NIH 3T3 IR+ cells).
T3 construct: whole, on cells; also called human IR
B7: no binding (tested: log[M] about -7.2 (about 6e-8 M)).

What follows are binders tested against T4, rmIGF-1R protein (murine IGF-1R extracellular domain, R&D Systems cat 6630-GR/Fc) (murine, UniProt Q60751 31-936) (assay: ELISA on coated rmIGF-1R, SNT at 5 µg/ml).
T4 construct: extracellular domain; Bought reagent; not shown: Fc part implied by the catalogue number /Fc; not described
T4 sequence (Q60751 31-936): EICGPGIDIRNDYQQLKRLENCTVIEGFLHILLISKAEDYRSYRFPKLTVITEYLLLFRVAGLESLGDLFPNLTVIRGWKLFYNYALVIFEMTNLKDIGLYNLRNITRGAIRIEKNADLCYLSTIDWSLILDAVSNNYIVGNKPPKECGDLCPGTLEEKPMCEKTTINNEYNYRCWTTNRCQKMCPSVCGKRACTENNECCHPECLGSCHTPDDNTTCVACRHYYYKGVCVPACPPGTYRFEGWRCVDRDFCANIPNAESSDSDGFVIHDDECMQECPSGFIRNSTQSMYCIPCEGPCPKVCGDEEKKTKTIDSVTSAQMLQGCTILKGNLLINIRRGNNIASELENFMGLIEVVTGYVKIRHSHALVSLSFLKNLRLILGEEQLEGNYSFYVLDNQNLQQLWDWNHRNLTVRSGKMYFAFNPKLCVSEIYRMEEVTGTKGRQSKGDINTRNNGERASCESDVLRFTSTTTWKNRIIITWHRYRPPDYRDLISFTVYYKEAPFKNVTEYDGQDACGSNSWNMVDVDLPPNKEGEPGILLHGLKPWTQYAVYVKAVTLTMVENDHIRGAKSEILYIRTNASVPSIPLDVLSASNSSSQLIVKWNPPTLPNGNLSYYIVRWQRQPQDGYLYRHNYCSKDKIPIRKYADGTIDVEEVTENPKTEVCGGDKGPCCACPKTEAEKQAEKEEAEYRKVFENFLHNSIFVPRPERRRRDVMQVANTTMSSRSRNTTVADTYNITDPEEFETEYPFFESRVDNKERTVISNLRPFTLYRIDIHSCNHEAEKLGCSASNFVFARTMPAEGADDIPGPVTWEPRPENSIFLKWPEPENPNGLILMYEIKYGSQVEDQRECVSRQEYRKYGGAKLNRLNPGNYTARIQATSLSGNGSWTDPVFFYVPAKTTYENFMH
Experimental: In addition three ELISAs were performed (either before or after cloning) to study the binding of antibodies on the recombinant human (hIGF-1R) and murine (mIGF-1R) proteins, and on the recombinant human Insulin Receptor (hIR) protein. […] The plates were then blocked with PBS containing 0.5% gelatin (#22151, Serva Electrophoresis GmbH, Heidelberg, Germany) for 2 h at 37° C. Once the saturation buffer discarded by flicking plates, 100 μl of each supernatant dilution were added to each well (either undiluted hybridoma supernatant either supernatant serial dilutions) and incubated for 1 h at 37° C. […] Then, ELISA plates were washed 3-times and the TMB (#UP664782, Uptima, Interchim, France) substrate is added. After a 10 min incubation time at room temperature, the reaction was stopped using 1 M sulfuric acid and the optical density at 450 nm is measured.
With B5 the “D.O 450 nm” value was 0.102 OD 450 nm.
B1 was tested, and the “D.O 450 nm” value was 0.099 OD 450 nm.
With B2 the “D.O 450 nm” value was 0.127 OD 450 nm.
With B3 the “D.O 450 nm” value was 0.102 OD 450 nm.
B4 was tested, and the “D.O 450 nm” value was 0.112 OD 450 nm.

Target: T1, human IGF-1R, native, on cells (MCF-7, …)
Test: cell-based or functional assay
Remark: another data set of the same source
B8 was tested, and the “ΔMFI (MFI 4°C - MFI 37°C, MCF-7)” value was 322 MFI and the “ΔMFI_EC50 (MCF-7)” value was 2.7e-10.
For B6, the “ΔMFI (MFI 4°C - MFI 37°C, MCF-7)” value was 288 MFI and the “ΔMFI_EC50 (MCF-7)” value was 1.8e-10.
With B9 the “ΔMFI (MFI 4°C - MFI 37°C, MCF-7)” value was 369 MFI and the “ΔMFI_EC50 (MCF-7)” value was 2.3e-10.
For B10, the “ΔMFI (MFI 4°C - MFI 37°C, MCF-7)” value was 403 MFI and the “ΔMFI_EC50 (MCF-7)” value was 2.2e-10.
With B11 the “ΔMFI (MFI 4°C - MFI 37°C, MCF-7)” value was 353 MFI and the “ΔMFI_EC50 (MCF-7)” value was 4.4e-10.
